The target in the assay is T1, GFP-rev-p53 biosensor.
T1 construct: also called rev-p53-GFP; NLS-p53-GFP construct
Kind of assay: co-localization of fluorescent biosensor components co-expressed in U2OS cells.

B1: TagGFP-NES/NLS-HDM2 biosensor (other)
chain: MVSKGEELIKENMHMKLYMEGTVNNHHFKCTSEGEGKPYEGTQTMRIKVVEGGPLPFAFDILATSFMYGSRTFINHTQGIPDFFKQSFPEGFTWERVTTYEDGGVLTATQDTSLQDGCLIYNVKIRGVNFPSNGPVMQKKTLGWEANTEMLYPADGGLEGRSDMALKLVGGGHLICNFKTTYRSKKPAKNLKMPGVYYVDHRLERIKEADKETYVEQHEVAVARYCDLPSKLGHKLNSGLRSRAQASNSPQTPLHTSRVLKEDKERWEDVKEEMTSALATMCVDYEQIKIKKIEDASNPLLLKRRKKLEMCNTNMSVPTDGAVTTSQIPASEQETLVRPKPLLLKLLKSVGAQKDTYTMKEVLFYLGQYIMTKRLYDEKQQHIVYCSNDLLGDLFGVPSFSVKEHRKIYTMIYRNLVVVNQQESSDS
notes: also called NES/NLS-HDM2-RFP; shuttling component
B1: the binding result is recorded as “binds”.

Values taken from patent US20100112602A1 (published 2010).
